Data on 17 molecules can be found in US11396552 (DIABETES FREE, dated 2022).

Assay [1] has as its target T1, recombinant CD40 (human, UniProt P25942 21-193, limits assumed).
T1 construct: the ELISA method itself names no species or construct; also called antigen CD40
The assay can be described thus: ELISA, plates coated with recombinant CD40, AP-conjugated anti-human kappa detection; effective concentration in supernatant read on a PG102 reference curve. As for the experimental part:
Binding of the antibody variants to CD40 was measured using an ELISA based assay based on UKSL-2057. Microtiter plates were coated with recombinant CD40 before the antibody variants were added and detected using an alkaline phosphatase conjugated antihuman kappa IgG.
Samples were then prepared and analyzed The results were converted to effective concentrations in the clarified supernatant […] This assay provides an assessment of the affinity of the antibody variants for CD40.
(In general: ELISA stands for enzyme-linked immunosorbent assay.)

The target of assay [2] is CD40 on peripheral blood mononuclear cells (PBMC) from healthy donors (human, UniProt P25942 21-277). Briefly: cell-based or functional assay.
CD40 on peripheral blood mononuclear cells (PBMC) from healthy donors, sequence (P25942 21-277): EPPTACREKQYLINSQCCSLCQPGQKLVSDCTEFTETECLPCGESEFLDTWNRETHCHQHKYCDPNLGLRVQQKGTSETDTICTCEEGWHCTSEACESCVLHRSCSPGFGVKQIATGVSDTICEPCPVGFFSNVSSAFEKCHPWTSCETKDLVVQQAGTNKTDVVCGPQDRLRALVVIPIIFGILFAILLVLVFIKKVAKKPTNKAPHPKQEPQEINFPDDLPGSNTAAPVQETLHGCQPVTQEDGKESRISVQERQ

T1 sequence (P25942 21-193 limits assumed): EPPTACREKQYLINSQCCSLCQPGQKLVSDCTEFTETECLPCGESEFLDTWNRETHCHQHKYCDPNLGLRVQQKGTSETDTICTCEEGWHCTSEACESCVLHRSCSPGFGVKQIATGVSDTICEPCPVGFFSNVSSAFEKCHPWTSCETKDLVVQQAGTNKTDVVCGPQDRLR

B1: PG102 wild-type recombinant antibody (antibody, human IgG4 S228P, kappa, V domains shown)
VH: QVKLQESGPGLVKPSETLSITCTVSGFSLSRYSVYWIRQPPGKGPEWMGMMWGGGSTDYSTSLKSRLTISKDTSKSQVSLKMNSLRTDDTAMYYCVRTDGDYWGQGTTVTVSS
VL: ELQLTQSPLSLPVTLGQPASISCRSSQSLANSNGNTYLHWYLQRPGQSPRLLIYKVSNRFSGVPDRFSGSGSGTDFTLKISRVEAEDVGVYYCSQSTHVPWTFGGGTKLEIKR
notes: Human IgG4pro(deltaK) heavy, kappa light; also called PG102_Wt; PG102 wt
Regarding B1, the CD40 binding in assay [1] was 14.6 mg/L. Further, in assay [2], the “Percentage inhibition of TNF secretion at 1 ng/ml” value (shortened to “Percentage inhibition … at 1 ng/ml”) was -5.2% and the “Percentage inhibition of TNF secretion at 10 ng/ml” value (from here on “Percentage inhibition … at 10 ng/ml”) came to 81.2%.

B2: PG102_Var7 (antibody, human IgG4 S228P, kappa, V domains shown)
VH: QVQLQESGPGLVKPSQTLSLTCTVSGFSLSRYSVYWVRQPPGKGLEWIGMMWGGGSTDYNPSLKSRLTISKDTSKSQVSLKLSSLTAADTAVYYCVRTDGDYWGQGTLVTVSS
VL: ELQLTQSPLSLPVTLGQPASISCRSSQSLASSQGNTYLHWYLQRPGQSPRLLIYKVSNRFSGVPDRFSGSGSGTDFTLKISRVEAEDVGVYYCSQSTHVPWTFGGGTKLEIKR
notes: IgG4pro(deltaK)/kappa; also called FFP104_Var7
Turning to B2, the CD40 binding in assay [1] is 33.6 mg/L.

B3: PG102_Var5 (antibody, human IgG4 S228P, kappa, V domains shown)
VH: QVQLQESGPGLVKPSETLSITCTVSGFSLSRYSVYWIRQPPGKGPEWMGMMWGGGSTDYSTSLKSRLTISKDTSKSQVSLKMSSLTAADTAVYYCVRTDGDYWGQGTLVTVSS
VL: ELQLTQSPLSLPVTLGQPASISCRSSQSLASSQGNTYLHWYLQRPGQSPRLLIYKVSNRFSGVPDRFSGSGSGTDFTLKISRVEAEDVGVYYCSQSTHVPWTFGGGTKLEIKR
notes: IgG4pro(deltaK)/kappa; also called FFP104_Var5
For B3, the CD40 binding in assay [1] turned out to be 34.9 mg/L. For the same molecule, in assay [2], the “Percentage inhibition … at 1 ng/ml” value came to 22.5% and the “Percentage inhibition … at 10 ng/ml” value was 87.4%.

B4: PG102_Var8 (antibody, human IgG4 S228P, kappa, V domains shown)
VH: QVQLVESGGGLVKPGGSLRLSCAVSGFSLSRYSVYWIRQAPGKGLEWMGMMWGGGSTDYSTSVKGRFTISKDNAKTSVYLQMSSLRAEDTAVYYCVRTDGDYWGQGTLVTVSS
VL: ELQLTQSPLSLPVTLGQPASISCRSSQSLASSQGNTYLHWYLQRPGQSPRLLIYKVSNRFSGVPDRFSGSGSGTDFTLKISRVEAEDVGVYYCSQSTHVPWTFGGGTKLEIKR
notes: IgG4pro(deltaK)/kappa; also called FFP104_Var8
As to B4, in assay [1], the CD40 binding was determined as 23.5 mg/L.

B5: PG102_Var11 (antibody, human IgG4 S228P, kappa, V domains shown)
VH: QVQLQESGPGLVKPSQTLSLTCTVSGFSLSRYSVYWVRQPPGKGLEWIGMMWGGGSTDYNPSLKSRLTISKDTSKSQVSLKLSSLTAADTAVYYCVRTDGDYWGQGTLVTVSS
VL: ELQLTQSPLSLPVTLGQPASISCRSSQSLADSQGNTYLHWYLQRPGQSPRLLIYKVSNRFSGVPDRFSGSGSGTDFTLKISRVEAEDVGVYYCSQSTHVPWTFGGGTKLEIKR
notes: IgG4pro(deltaK)/kappa; also called FFP104_Var11
Take B5: the CD40 binding in assay [1] worked out at 12.6 mg/L.

B6: PG102_Var12 (antibody, human IgG4 S228P, kappa, V domains shown)
VH: QVQLVESGGGLVKPGGSLRLSCAVSGFSLSRYSVYWIRQAPGKGLEWMGMMWGGGSTDYSTSVKGRFTISKDNAKTSVYLQMSSLRAEDTAVYYCVRTDGDYWGQGTLVTVSS
VL: ELQLTQSPLSLPVTLGQPASISCRSSQSLADSQGNTYLHWYLQRPGQSPRLLIYKVSNRFSGVPDRFSGSGSGTDFTLKISRVEAEDVGVYYCSQSTHVPWTFGGGTKLEIKR
notes: IgG4pro(deltaK)/kappa; also called FFP104_Var12
For the molecule B6, the CD40 binding in assay [1] turned out to be 2.35 mg/L.

B7: PG102_Var14 (antibody, human IgG4 S228P, kappa, V domains shown)
VH: QVQLQESGPGLVKPSETLSITCTVSGFSLSRYSVYWVRQPPGKGLEWMGMMWGGGSTDYSTSLKSRLTISKDTSKSQVSLKMSSLTAADTAVYYCVRTDGDYWGQGTLVTVSS
VL: DIVMTQSPLSLPVTPGQPASISCRSSQSLASSQGNTYLHWYLQKPGQSPRLLIYKVSNRFSGVPDRFSGSGSGTDFTLKISRVEAEDVGVYYCSQSTHVPWTFGGGTKLEIKR
notes: IgG4pro(deltaK)/kappa; also called FFP104_Var14
With B7, the CD40 binding in assay [1] was determined as 23 mg/L. In assay [2], the “Percentage inhibition … at 1 ng/ml” value worked out at 21.8% and the “Percentage inhibition … at 10 ng/ml” value turned out to be 85.5%.

B8: PG102_Var1 (antibody, human IgG4 S228P, kappa, V domains shown)
VH: QVQLQESGPGLVKPSETLSITCTVSGFSLSRYSVYWIRQPPGKGPEWMGMMWGGGSTDYSTSLKSRLTISKDTSKSQVSLKMSSLTAADTAVYYCVRTDGDYWGQGTLVTVSS
VL: ELQLTQSPLSLPVTLGQPASISCRSSQSLASSSGNTYLHWYLQRPGQSPRLLIYKVSNRFSGVPDRFSGSGSGTDFTLKISRVEAEDVGVYYCSQSTHVPWTFGGGTKLEIKR
notes: IgG4pro(deltaK)/kappa; also called FFP104_Var1
With B8, the CD40 binding in assay [1] amounted to 34.9 mg/L. Further, in assay [2], the “Percentage inhibition … at 1 ng/ml” value is -0.9% and the “Percentage inhibition … at 10 ng/ml” value was 81.8%.

B9: PG102_Var9 (antibody, human IgG4 S228P, kappa, V domains shown)
VH: QVQLQESGPGLVKPSETLSITCTVSGFSLSRYSVYWIRQPPGKGPEWMGMMWGGGSTDYSTSLKSRLTISKDTSKSQVSLKMSSLTAADTAVYYCVRTDGDYWGQGTLVTVSS
VL: ELQLTQSPLSLPVTLGQPASISCRSSQSLADSQGNTYLHWYLQRPGQSPRLLIYKVSNRFSGVPDRFSGSGSGTDFTLKISRVEAEDVGVYYCSQSTHVPWTFGGGTKLEIKR
notes: IgG4pro(deltaK)/kappa; also called FFP104_Var9
Consider B9, for which, in assay [1], the CD40 binding came to 17 mg/L.

B10: PG102_Var3 (antibody, human IgG4 S228P, kappa, V domains shown)
VH: QVQLQESGPGLVKPSQTLSLTCTVSGFSLSRYSVYWVRQPPGKGLEWIGMMWGGGSTDYNPSLKSRLTISKDTSKSQVSLKLSSLTAADTAVYYCVRTDGDYWGQGTLVTVSS
VL: ELQLTQSPLSLPVTLGQPASISCRSSQSLASSSGNTYLHWYLQRPGQSPRLLIYKVSNRFSGVPDRFSGSGSGTDFTLKISRVEAEDVGVYYCSQSTHVPWTFGGGTKLEIKR
notes: IgG4pro(deltaK)/kappa; also called FFP104_Var3
Take B10: the CD40 binding in assay [1] was 38.5 mg/L. Besides, in assay [2], the “Percentage inhibition … at 1 ng/ml” value amounted to 16.1% and the “Percentage inhibition … at 10 ng/ml” value amounted to 88.5%.

B11: PG102_Var13 (antibody, human IgG4 S228P, kappa, V domains shown)
VH: QVQLQESGPGLVKPSETLSITCTVSGFSLSRYSVYWIRQPPGKGPEWMGMMWGGGSTDYSTSLKSRLTISKDTSKSQVSLKMSSLTAADTAVYYCVRTDGDYWGQGTLVTVSS
VL: DIVMTQSPLSLPVTPGQPASISCRSSQSLASSQGNTYLHWYLQKPGQSPRLLIYKVSNRFSGVPDRFSGSGSGTDFTLKISRVEAEDVGVYYCSQSTHVPWTFGGGTKLEIKR
notes: IgG4pro(deltaK)/kappa; also called FFP104_Var13
As for B11, in assay [1], the CD40 binding was determined as 22.8 mg/L.

B12: PG102_Var10 (antibody, human IgG4 S228P, kappa, V domains shown)
VH: QVQLQESGPGLVKPSETLSITCTVSGFSLSRYSVYWVRQPPGKGLEWMGMMWGGGSTDYSTSLKSRLTISKDTSKSQVSLKMSSLTAADTAVYYCVRTDGDYWGQGTLVTVSS
VL: ELQLTQSPLSLPVTLGQPASISCRSSQSLADSQGNTYLHWYLQRPGQSPRLLIYKVSNRFSGVPDRFSGSGSGTDFTLKISRVEAEDVGVYYCSQSTHVPWTFGGGTKLEIKR
notes: IgG4pro(deltaK)/kappa; also called FFP104_Var10
On to B12, for which, in assay [1], the CD40 binding stood at 4.35 mg/L. Moreover, in assay [2], the “Percentage inhibition … at 1 ng/ml” value was determined as 14.4% and the “Percentage inhibition … at 10 ng/ml” value is 75.8%.

B13: PG102_Var15 (antibody, human IgG4 S228P, kappa, V domains shown)
VH: QVQLQESGPGLVKPSQTLSLTCTVSGFSLSRYSVYWVRQPPGKGLEWIGMMWGGGSTDYNPSLKSRLTISKDTSKSQVSLKLSSLTAADTAVYYCVRTDGDYWGQGTLVTVSS
VL: DIVMTQSPLSLPVTPGQPASISCRSSQSLASSQGNTYLHWYLQKPGQSPRLLIYKVSNRFSGVPDRFSGSGSGTDFTLKISRVEAEDVGVYYCSQSTHVPWTFGGGTKLEIKR
notes: IgG4pro(deltaK)/kappa; also called FFP104_Var15
As to B13, in assay [1], the CD40 binding stood at 29.4 mg/L.

B14: PG102_Var2 (antibody, human IgG4 S228P, kappa, V domains shown)
VH: QVQLQESGPGLVKPSETLSITCTVSGFSLSRYSVYWVRQPPGKGLEWMGMMWGGGSTDYSTSLKSRLTISKDTSKSQVSLKMSSLTAADTAVYYCVRTDGDYWGQGTLVTVSS
VL: ELQLTQSPLSLPVTLGQPASISCRSSQSLASSSGNTYLHWYLQRPGQSPRLLIYKVSNRFSGVPDRFSGSGSGTDFTLKISRVEAEDVGVYYCSQSTHVPWTFGGGTKLEIKR
notes: IgG4pro(deltaK)/kappa; also called FFP104_Var2
B14: the CD40 binding in assay [1] came to 30.1 mg/L. Moreover, in assay [2], the “Percentage inhibition … at 1 ng/ml” value came out at 20.2% and the “Percentage inhibition … at 10 ng/ml” value worked out at 87.2%.

B15: PG102_Var6 (antibody, human IgG4 S228P, kappa, V domains shown)
VH: QVQLQESGPGLVKPSETLSITCTVSGFSLSRYSVYWVRQPPGKGLEWMGMMWGGGSTDYSTSLKSRLTISKDTSKSQVSLKMSSLTAADTAVYYCVRTDGDYWGQGTLVTVSS
VL: ELQLTQSPLSLPVTLGQPASISCRSSQSLASSQGNTYLHWYLQRPGQSPRLLIYKVSNRFSGVPDRFSGSGSGTDFTLKISRVEAEDVGVYYCSQSTHVPWTFGGGTKLEIKR
notes: IgG4pro(deltaK)/kappa; also called FFP104_Var6
For the molecule B15, in assay [1], the CD40 binding worked out at 39.7 mg/L. For the same molecule, in assay [2], the “Percentage inhibition … at 1 ng/ml” value was determined as 16.6% and the “Percentage inhibition … at 10 ng/ml” value was 86%.

B16: PG102_Var16 (antibody, human IgG4 S228P, kappa, V domains shown)
VH: QVQLVESGGGLVKPGGSLRLSCAVSGFSLSRYSVYWIRQAPGKGLEWMGMMWGGGSTDYSTSVKGRFTISKDNAKTSVYLQMSSLRAEDTAVYYCVRTDGDYWGQGTLVTVSS
VL: DIVMTQSPLSLPVTPGQPASISCRSSQSLASSQGNTYLHWYLQKPGQSPRLLIYKVSNRFSGVPDRFSGSGSGTDFTLKISRVEAEDVGVYYCSQSTHVPWTFGGGTKLEIKR
notes: IgG4pro(deltaK)/kappa; also called FFP104_Var16
Consider B16, for which the CD40 binding in assay [1] was found to be 20.7 mg/L.

B17: PG102_Var4 (antibody, human IgG4 S228P, kappa, V domains shown)
VH: QVQLVESGGGLVKPGGSLRLSCAVSGFSLSRYSVYWIRQAPGKGLEWMGMMWGGGSTDYSTSVKGRFTISKDNAKTSVYLQMSSLRAEDTAVYYCVRTDGDYWGQGTLVTVSS
VL: ELQLTQSPLSLPVTLGQPASISCRSSQSLASSSGNTYLHWYLQRPGQSPRLLIYKVSNRFSGVPDRFSGSGSGTDFTLKISRVEAEDVGVYYCSQSTHVPWTFGGGTKLEIKR
notes: IgG4pro(deltaK)/kappa; also called FFP104_Var4
With B17, the CD40 binding in assay [1] was found to be 29.5 mg/L.
